Here are results for one protein from article PMC12818389, “The Functional Epididymal Amyloid Cystatin‐Related Epididymal Spermatogenic (CRES) is a Component of the Mammalian Brain Extracellular Matrix” (Journal of Neuroscience Research, 2026).

The data set concerns the molecule itself. The data set can be described thus: SDS-PAGE and Western blot of SDS-resistant high molecular weight forms; 5 ug recombinant CRES monomer alone, 50 mM sodium phosphate pH 8, room temperature 3 h with shaking and silicon beads, no ThT; 25,000 x g pellet in Laemmli buffer, Western blot for CRES. For orientation: A western blot detects proteins with antibodies after separation by electrophoresis.

B1: Tag-less full-length mouse CRES C48A protein (recombinant) (natural protein, UniProt P32766 20-142, looked up)
chain: VGVDQSKNEVKAQNYFGSINISNANVKQAVWFAMKEYNKESEDKYVFLVDKILHAKLQITDRMEYQIDVQISRSNCKKPLNNTENCIPQKKPELEKKMSCSFLVGALPWNGEFNLLSKECKDV
notes: Cystatin-related epididymal spermatogenic protein (CRES, Cst8), mouse, called tag-less and full-length; C48A introduced to prevent inappropriate disulfide bond formation; a recombinant form without the signal peptide is possible (surmise); also called CRES monomer; recombinant CRES protein
With B1, the binding result is recorded as “binds”.
